This is an account of results in US20220259593A1, “CONTROL OF MAMMALIAN GENE DOSAGE USING CRISPR” (The Regents of the University of California, priority 2019, published 2022).

For this data set, the system named is K562 CRISPRi cells. Description: Constant region variant library pooled growth screen, K562. The data set is classed as cell-based, human. The settings on record: sgRNA constant region variants; activity relative to the original, un-modified constant region cr995. The method, boiled down: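 K562 CRISPRi, duplicate transductions; puromycin 1 d 0.75 μg/mL then 1 d 0.85 μg/mL; >2000× coverage in spinner flasks; harvests at 4-8 d growth. Activity = phenotype ÷ phenotype with unmodified constant region.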

B1: cr631 (nucleic acid)
guide: GTTTAAGAGCTAAGCTGGAAACAGCATAGCAAGTTTAAATAAGGATATTCCGTTATCAACATGAAAATGTGGCAACGAGTCGTTGCT
modifications: listed as DNA, chemistry not fully specified
B1 registered a Mean relative activity of 0.6014.

B2: cr957 (nucleic acid)
guide: GTTTAAGAGCTAAGCTGGAAACAGCATAGCAAGTTTAAATAAGGGTACTCCGTTATCAACTTGAAAAAGTGCCACCGAGTCGGTGGT
modifications: listed as DNA, chemistry not fully specified
B2 registered a Mean relative activity of 0.5576.

B3: cr598 (nucleic acid)
guide: GTTTAAGAGCTAAGCTGGAAACAGCATAGCAAGCTTAAATAAGGCTAGTCCGTTATCAACTGGAAACAGTGGCACCGAGTCGGTGCT
modifications: listed as DNA, chemistry not fully specified
As for B3, the Mean relative activity was 0.5934.

B4: cr533 (nucleic acid)
guide: GTTTAAGAGCTAAGCTGGAAACAGCATAGCAAGTTTAAATAAGGCTAGTCCGTTATCAGCTTGAAAAAGCGGCGGCGAGTCGCCGCT
modifications: listed as DNA, chemistry not fully specified
B4 had a Mean relative activity of 0.5558.

B5: cr008 (nucleic acid)
guide: GTCTAAGAGCTAAGCTGGAAACAGCATAGCAAGTTTAAATAAGGCTAGTCCGTTATCAACTTGAAAAAGTGGCACCGAGTCGGTGCT
modifications: listed as DNA, chemistry not fully specified
For B5, the Mean relative activity is given as 0.5955.

B6: cr827 (nucleic acid)
guide: GTTTAAGAGCTAAGCTGGAAACAGCATAGCAAGTTTAAATAAGGATATTCCGTTATCAACTTGAAAAAGTGGCTACGAGTCGTAGCT
modifications: listed as DNA, chemistry not fully specified
As for B6, the Mean relative activity is recorded as 0.5792.

B7: cr602 (nucleic acid)
guide: GTTTAAGAGCTAAGCTGGAAACAGCATAGCAAGTTTAAATAAGGCTAGTCCGTTATCAACTTGAAAAAGTGGCGCCGAGTCGGCGCT
modifications: listed as DNA, chemistry not fully specified
Molecule B7 came in with a Mean relative activity of 1.049.

B8: cr531 (nucleic acid)
guide: GTTTAAGAGCTAAGCTGGTAACAGCATAGCAAGTTTAAATAAGGCTAGTCCGTTATCAACTTGAAAAAGTGGCACCGAGTCGGTGCT
modifications: listed as DNA, chemistry not fully specified
The molecule B8 registered a Mean relative activity of 1.048.

B9: cr726 (nucleic acid)
guide: GTTTAAGAGCTAAGCTGGAAACAGCATAGCATGTTTAAATAAGGCTAGTCCATTCTCAACTTGAAAAAGTGGCACCGAGTCGGTGCT
modifications: listed as DNA, chemistry not fully specified
As to B9, the Mean relative activity was 0.5903.

B10: cr989 (nucleic acid)
guide: GTTTAAGAGCTAAGCTGGAAACAGCATAGCAAGTTTAAATAAGGCTAGTCCGTTATCAACTTGAAAAAATGGCACCGAGTCGGTGCT
modifications: listed as DNA, chemistry not fully specified
B10 yielded a Mean relative activity of 0.5623.

B11: cr927 (nucleic acid)
guide: GTTTAAGAGCTAAGCTGGAAACAGCATAGCAAGTTTAAATAAGGCTAGTCCGTTATCAACTTGAAAAAGTGGCGCCCAGTGGGCGCT
modifications: listed as DNA, chemistry not fully specified
On to B11, for which the Mean relative activity is 0.5921.

B12: cr458 (nucleic acid)
guide: GTTTAAGAGCTAAGCTGGAAACAGCATAGCAAGTTTAAATAAGGCTAGTCCGTTATCAACTTGAGAAAGTCGCACCGAGTCGGTGCT
modifications: listed as DNA, chemistry not fully specified
B12 yielded a Mean relative activity of 0.5958.

B13: cr842 (nucleic acid)
guide: GTTTAAGAGCTAAGCTGGAAACAGCATAGCAAGCTTAAATAAGGCTAGTCCGTTATCAGCTTGAAAAAGCGGCACCGAGTCGGTGCT
modifications: listed as DNA, chemistry not fully specified
On to B13, for which the Mean relative activity came to 0.5544.

B14: cr976 (nucleic acid)
guide: GTTTAAGAGCTAAGCTGGAAACAGCATAGCAAGTTTAAATAAGGGTACTCCGTTATCAACTTGAGAAAGTGGCACCGAGTCGGTGCT
modifications: listed as DNA, chemistry not fully specified
Consider B14, for which the Mean relative activity was 0.5594.

B15: cr330 (nucleic acid)
guide: GTTTAAGAGCTAAGCTGGAAACAGCATAGCAAGTTTAAATAAGGATATTCCGTTATCAACTTGAAAAAGTGCCACCGAGTCGGTGGT
modifications: listed as DNA, chemistry not fully specified
B15 showed a Mean relative activity of 0.5762.

B16: cr440 (nucleic acid)
guide: GTTTAAGAGCTAAGCTGGAAACAGCATAGCAAGTTTAAATAAGGCTAGTCCGTTATCAACTTGAAAAACTGGCACCGAGTCGGTGCT
modifications: listed as DNA, chemistry not fully specified
In turn, B16 returned a Mean relative activity of 0.5863.

B17: cr223 (nucleic acid)
guide: GTTTAAGAGCTAAGCTGGAAACAGCATAGCAAGTTTAAATAAGGGTACTCCGTTATCAACTTGAAAAAGTGGCACCGAGTCGGTGCT
modifications: listed as DNA, chemistry not fully specified
Regarding B17, the Mean relative activity turned out to be 0.5667.

B18: cr500 (nucleic acid)
guide: GTTTAAGAGCTAAGCTGGAAACAGCATAGCAAGTTTAAATAAGGCTAGTCCGTTATCAACTTGAAAAAGTGGCACCGAGGCGGTGCT
modifications: listed as DNA, chemistry not fully specified
The molecule B18 had a Mean relative activity of 0.5743.

B19: cr491 (nucleic acid)
guide: GTTTAAGAGCTAAGCTGGAAACAGCATAGCAAGTTTAAATAAGGATATTCCGTTATCAAGTTGAAAAACTGGCACCGAGTCGGTGCT
modifications: listed as DNA, chemistry not fully specified
In the case of B19, the Mean relative activity came out at 0.5775.

B20: cr651 (nucleic acid)
guide: GTTTAAGAGCTAAGCTGGAAACAGCATAGCAAGTTTAAATAAGGCTAGTCCGTTTGCAACTTGAAAAAGTAGCACCGAGTCGGTGCT
modifications: listed as DNA, chemistry not fully specified
With B20, the Mean relative activity was 0.5637.

B21: cr803 (nucleic acid)
guide: GTTTAAGAGCTAAGCTGGAAACAGCATAGCAAGTTTAAATAAGGATATTCCGTTATCAACTTGAGAAAGTGGCACCGAGTCGGTGCT
modifications: listed as DNA, chemistry not fully specified
As to B21, the Mean relative activity is 0.578.

B22: cr481 (nucleic acid)
guide: GTTTAAGAGCTAAGCTGGAAACAGCATAGCAAGTTTAAATAAGGGTACTCCGTTATCAACTTGAAAAAGTGACACCGAGTCGGTGTT
modifications: listed as DNA, chemistry not fully specified
B22 displayed a Mean relative activity of 0.5936.

B23: cr456 (nucleic acid)
guide: GTTTAAGAGCTAAGCTGGAAACAGCATAGCAAATTTAAATAAGGCAAGTCCGTTATCAACTTGAAAAAGTGGCACCGAGTCGGTGCT
modifications: listed as DNA, chemistry not fully specified
Take B23: the Mean relative activity came to 0.5821.

B24: cr915 (nucleic acid)
guide: GTTTAAGAGCTAAGCTGGAAACAGCATAGCAAGTTTAAATAAGGCTAGTCCGTTATCAACTTGAAAAAGTGGCACCCAGTGGGTGCT
modifications: listed as DNA, chemistry not fully specified
In turn, B24 yielded a Mean relative activity of 0.5965.

B25: cr300 (nucleic acid)
guide: GTTTAAGAGCTAAGCTGGAAACAGCATAGCAAGTTTAAATAAGGATATTCCGTTATCAACTTGAAAAAGTGATACCGAGTCGGTATT
modifications: listed as DNA, chemistry not fully specified
B25 registered a Mean relative activity of 0.592.

B26: cr338 (nucleic acid)
guide: GTTTAAGAGCTAAGCTGGAAACAGCATAGCAAGTCTAAATAAGGCGAGTCCGTTATCAACTTGAAAAAGTGGCACCGAGTCGGTGCT
modifications: listed as DNA, chemistry not fully specified
B26 had a Mean relative activity of 0.5831.

B27: cr134 (nucleic acid)
guide: GTTTAAGAGCTAAGCTGGAAACAGCATAGCAAGTTTAAATAAGGCTAGTCCGTTATTAACTTGAACAAGTGGCACCGAGTCGGTGCT
modifications: listed as DNA, chemistry not fully specified
As to B27, the Mean relative activity is recorded as 0.5692.

B28: cr479 (nucleic acid)
guide: GTTTAAGAGCTAAGCTGGAAACAGCATAGCAAGTTTAAATAAGGCTAGTCCGTTATCAAGTTGAAAAACTGGGACCCAGTGGGTCCT
modifications: listed as DNA, chemistry not fully specified
Turning to B28, the Mean relative activity was 0.5994.

B29: cr282 (nucleic acid)
guide: GTTTAAGAGCTAAGCTGGAAACAGCATAGCAAGTTTAAATAAGGCTAGTCCGTTATCAACTTGAAAAAGTGCACCCGAGTCGGGTGT
modifications: listed as DNA, chemistry not fully specified
The molecule B29 returned a Mean relative activity of 1.049.
